Measured values as given in the supplement of paper PMC9732359.
± gives the uncertainty stated by the source.

Test: protein stability index of a GFP-peptide fusion (yeast GPS) (PSI 1-4); higher = more stable; sorted into four equal gates, so the index is relative within each strain
How it was run: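 Plasmids in a pooled yeast library fused tiled 17-residue yeast protein peptides downstream of GFP and also expressed Cherry. Mid-log cultures grown without leucine were sorted into four equal gates by GFP/Cherry fluorescence ratio. Each gate's plasmids were PCR-amplified and Illumina-sequenced, and reads were matched to strains by barcodes. The protein stability index is derived by multiplying each gate's read frequency by its gate number and summing the results.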

| Sequence | protein stability index (doa10∆) | protein stability index (pdr5∆) | protein stability index (san1∆) | protein stability index (ubr1∆) |
| --- | --- | --- | --- | --- |
| NENPINKIMTNQINSFW [NUT1] | 2.5 ± 0.065 | 2.66 ± 0.064 | 2.43 ± 0.054 | 2.9 ± 0.042 |
| TIAKQVLNGQKIVVVRA [RPL16B] | 3.04 ± 0.19 | 2.9 ± 0.13 |  | 2.6 ± 0.14 |
| AIKELNYNRIAKICALL [NUT1] | 2.41 ± 0.059 | 2.44 ± 0.065 | 2.37 ± 0.08 | 2.32 ± 0.043 |
| EIKDGRSLFLRNRGKIH [YMR153W/NUP53] | 2.01 ± 0.095 | 2.2 ± 0.068 | 1.54 ± 0.16 | 2.46 ± 0.066 |
| YCDPNTQEIRPVNTGVL [RRP40] | 2.62 ± 0.055 | 2.89 ± 0.05 | 2.62 ± 0.052 | 2.76 ± 0.069 |
| LIKAKNFLVFQGDVEQI [SMC1] | 2.63 ± 0.19 | 3.15 ± 0.12 | 2.41 ± 0.17 | 2.76 ± 0.23 |
| TRLTAYQELAYRATSLD [YML031W/NDC1] | 3.13 ± 0.11 | 3.01 ± 0.11 | 3.32 ± 0.072 | 3.04 ± 0.11 |
| PIRINSTEEIEYIELEY [YMR129W/POM152] | 2.45 ± 0.095 | 3.04 ± 0.09 | 2.68 ± 0.091 | 2.82 ± 0.039 |
| LASSFVNGFLNLGYCND [RPN1] | 3.2 ± 0.1 | 3.33 ± 0.097 | 3.27 ± 0.049 | 3.17 ± 0.082 |
| IKKMLHLVWMKGTNDEG [YCS4] | 3.17 ± 0.2 | 3.51 ± 0.11 | 3.19 ± 0.16 | 3.33 ± 0.18 |
| VVFDSNEAPPKTSLADW [YMR153W/NUP53] | 3.19 ± 0.06 | 3.28 ± 0.051 | 3.06 ± 0.073 | 3.33 ± 0.096 |
| NASLTIEDEDEPFNAGI [SMC1] | 3.29 ± 0.13 | 3.15 ± 0.12 | 3.39 ± 0.083 | 3.23 ± 0.085 |
| LELNLSVLHSWVQLVQI [YJL039C/NUP192] | 1.28 ± 0.074 | 1.91 ± 0.085 | 2.11 ± 0.12 | 1.93 ± 0.09 |
| RLGFFYNDQLYVKEKLE [RPN7] | 2.56 ± 0.17 | 3.13 ± 0.19 |  | 3.5 ± 0.087 |
| FNNGDDDDYGDEEDPNE [RPC31] | 3.25 ± 0.15 | 2.36 ± 0.17 | 2.98 ± 0.088 |  |
| ASLVDYVQVRQPIFVAH [RPS5] | 1.99 ± 0.1 | 1.98 ± 0.069 | 2.1 ± 0.14 | 1.67 ± 0.11 |
| TIFKYLTDKDAFETHYR [CDC53] | 3.27 ± 0.11 | 3.12 ± 0.086 | 3.09 ± 0.049 | 2.98 ± 0.061 |
| MNETLNLKVELKEQSEQ [SMC4] |  |  | 2.14 ± 0.29 | 3.42 ± 0.12 |
| KIVVVRAEALNISGEFF [RPL16B] | 2.51 ± 0.12 | 2.79 ± 0.12 | 2.56 ± 0.14 | 3 ± 0.089 |
| DIFSNLSSDDLLGKESF [YCS4] | 2.87 ± 0.05 | 2.24 ± 0.05 | 2.95 ± 0.044 | 2.86 ± 0.034 |
| LLSEHDDHNGEVWSVSW [YGL100W/SEH1] | 2.62 ± 0.068 | 2.8 ± 0.069 | 2.36 ± 0.079 | 2.66 ± 0.1 |
| LDTFIKIDGNPDELIKA [PRE5] | 3.19 ± 0.12 | 3.19 ± 0.12 | 3.31 ± 0.071 | 3.36 ± 0.079 |
| MNRRKIAMPKRRMAFKP [YLR335W/NUP2] | 2.71 ± 0.076 | 2.35 ± 0.14 | 2.91 ± 0.071 | 3.13 ± 0.13 |
| LQLIIFLRTQFLKLYVL [RGR1] | 1.25 ± 0.1 | 1.4 ± 0.11 | 1.53 ± 0.12 | 1.41 ± 0.091 |
| EEEYDETHETNISNAKL [YAR002W/NUP60] | 3.35 ± 0.073 | 3.21 ± 0.09 | 3.44 ± 0.087 | 3.31 ± 0.065 |
| PNGEGSKTWETYEMRIH [RPS20] | 3.09 ± 0.091 | 3.35 ± 0.069 | 3.05 ± 0.095 | 3.33 ± 0.045 |
| TPEYAAEKVKVRDELRK [UBP6] | 1.28 ± 0.068 | 1.61 ± 0.083 | 1.42 ± 0.14 | 1.46 ± 0.07 |

| Sequence | protein stability index (doa10∆) | protein stability index (pdr5∆) | protein stability index (san1∆) | protein stability index (ubr1∆) |
| --- | --- | --- | --- | --- |
| TVKFKHMDYDGNIVKEF [YMR129W/POM152] | 2.89 ± 0.079 | 2.39 ± 0.043 | 2.67 ± 0.094 | 2.99 ± 0.05 |
| NCVNDVLEFCKDYEAKT [POP1] | 3.2 ± 0.075 | 3.45 ± 0.083 | 3.14 ± 0.072 | 3.32 ± 0.051 |
| EIEQPVTTFVFTGQGSQ [FAS1] | 2.86 ± 0.1 | 2.91 ± 0.075 | 2.49 ± 0.14 | 2.24 ± 0.066 |
| SAFMKFSKAIEWDMLNV [BRR2] | 2.15 ± 0.07 | 1.9 ± 0.072 | 1.99 ± 0.081 | 2.04 ± 0.045 |
| EIEMKNKLEKLNSLLTY [SMC4] | 1.71 ± 0.055 | 1.87 ± 0.058 | 1.85 ± 0.1 | 1.61 ± 0.04 |
| GILYMGQGEQVDDVLET [RPN1] | 1.23 ± 0.16 | 1.19 ± 0.15 | 1.07 ± 0.18 | 1.23 ± 0.11 |
| SDKQRRLLAKDAMIAQR [DIS3] | 2.29 ± 0.056 | 2.48 ± 0.049 | 2.36 ± 0.064 | 2.46 ± 0.049 |
| MDRDSESEEAETKDIRK [SRB4] | 3.21 ± 0.17 | 3.13 ± 0.14 | 2.62 ± 0.28 | 2.95 ± 0.16 |
| KLTSEETVFNYRLMIKR [GRR1] | 3.02 ± 0.12 | 2.96 ± 0.12 | 2.56 ± 0.12 | 2.82 ± 0.095 |
| RASLVPGTVLILLAGRF [RPL6A] | 1.67 ± 0.054 | 1.93 ± 0.084 | 1.78 ± 0.1 | 1.75 ± 0.082 |
| LWNLNAYRTDVIQALGG [PRP8] | 2.17 ± 0.055 | 2.16 ± 0.05 | 1.88 ± 0.088 | 1.93 ± 0.041 |
| ETTLGEMAEKIDFTLLN [PRP8] | 3.12 ± 0.093 | 3.17 ± 0.1 | 3.19 ± 0.098 | 2.71 ± 0.082 |
| ILNDIETLEHNPVALEQ [BRR2] | 2.95 ± 0.08 | 3.25 ± 0.1 | 3.18 ± 0.079 | 3.13 ± 0.077 |
| LNARMFLKYYGAHKFLD [SIR2] | 1.89 ± 0.092 | 1.68 ± 0.097 | 1.21 ± 0.12 | 1.69 ± 0.066 |
| AEKLVPLPICHANSVVA [YML031W/NDC1] | 1.68 ± 0.2 | 1.34 ± 0.091 | 1.61 ± 0.2 | 1.42 ± 0.16 |
| AQFTFGKAATAKETHTK [YOR098C/NUP1] | 2.84 ± 0.13 | 2.81 ± 0.17 | 2.84 ± 0.18 | 3.02 ± 0.18 |
| IEPELFNGYNPEKKEMI [FAS2] | 3.18 ± 0.095 | 3.25 ± 0.13 | 3.33 ± 0.092 | 3.43 ± 0.14 |
| ISSPIVANSPNKRLDVI [YDL088C/ASM4] | 2.71 ± 0.23 | 2.88 ± 0.14 |  | 2.85 ± 0.13 |
| FNYQGDELVLNFENDNE [REC8] | 2.9 ± 0.18 | 3.25 ± 0.17 | 2.79 ± 0.11 | 2.63 ± 0.068 |
| TCGSKGSTLNVSQMVAV [RPO31] | 3.1 ± 0.13 | 2.89 ± 0.097 | 2.91 ± 0.15 | 2.79 ± 0.15 |
| SLTEATKTNVDNNSKAE [YLR335W/NUP2] | 3.14 ± 0.052 | 3.35 ± 0.064 | 3.14 ± 0.062 | 3.32 ± 0.042 |
| RDVELSSDELKVIEEQL [SMC4] | 3.27 ± 0.058 | 3.25 ± 0.072 | 2.94 ± 0.054 | 3.26 ± 0.055 |
| FRHHVQIQQQQQKQQQQ [SNF5] | 2.71 ± 0.17 |  | 3.07 ± 0.13 | 2.57 ± 0.083 |
| LCDLFVNGSITDQLIQN [NUT1] |  | 2.11 ± 0.22 | 1.76 ± 0.21 | 3.44 ± 0.29 |
| DADEKSSNLYETIIEAD [YJR042W/NUP85] | 2.82 ± 0.067 | 2.95 ± 0.061 | 2.88 ± 0.057 | 3.13 ± 0.082 |
| RRMAFKPFGSAKSDETK [YLR335W/NUP2] | 2.75 ± 0.073 | 2.74 ± 0.063 | 2.88 ± 0.058 | 2.08 ± 0.054 |
